Here are results for 3 molecules from patent US10253323B2, “Chloroplast transit peptides” (priority 2015, dated 2019).

Entries after “also recorded” stand apart in the source; their conditions may differ.

Experiment [1] relates to chloroplasts of the tobacco leaf tissues. The experiment can be described thus: Tobacco transient assay, confocal microscopy of TraP-YFP/GFP. In kind it is cell-based, Nicotiana tabacum. The settings on record: TraP-YFP or TraP-GFP fusion, Agrobacterium-infiltrated tobacco leaf tissue. From the text: The above described chimeric chloroplast transit peptide sequences were initially tested via a transient in planta assay. Polynucleotide sequences which encode the TraP10 (SEQ ID NO:9), TraP11 (SEQ ID NO:10), TraP17 (SEQ ID NO:11), TraP18 (SEQ ID NO:12), TraP19 (SEQ ID NO:13), TraP26 (SEQ ID NO:14), TraP27 (SEQ ID NO:15), and TraP28 (SEQ ID NO:16), chimeric chloroplast transit peptide sequences were synthesized. A linker sequence (SEQ ID NO:17) was incorporated between the TraP sequence and the yfp coding sequence of TraP10 and TraP11. The resulting constructs contained two plant transcription units (PTU). The first PTU was comprised of the Arabidopsis thaliana Ubiquitin 10 promoter (AtUbi10 promoter; Callis, et al., (1990) J. Biol. Chem., 265: 12486-12493), TraP-yellow fluorescent protein fusion gene (TraP-YFP; US Patent App. 2007/0298412) or the TraP-green fluorescent protein fusion gene (TraP-GFP; Sheen et al., (1995) Plant J., 8(5): 777-84), and Agrobacterium tumefaciens ORF 23 3′ untranslated region (AtuORF23 3′UTR; U.S. Pat. No. 5,428,147). The second PTU was comprised of the Cassava Vein Mosaic Virus promoter (CsVMV promoter; Verdaguer et al., (1996) Plant Molecular Biology, 31: 1129-1139), phosphinothricin acetyl transferase (PAT; Wohlleben et al., (1988) Gene, 70: 25-37) or DSM-II (International Patent App. 2008070845), and Agrobacterium tumefaciens ORF 1 3′ untranslated region (AtuORF1 3′UTR; Huang et al., (1990) J. Bacteriol., 172: 1814-1822). Construct pDAB101979 contains the TraP10 chimeric chloroplast transit peptide (FIG. 3). Construct pDAB101980 contains the TraP11 chimeric chloroplast transit peptide (FIG. 4). Construct pDAB107634 contains the TraP17 chimeric chloroplast transit peptide (FIG. 5). Construct pDAB107635 contains the TraP18 chimeric chloroplast transit peptide (FIG. 6). Construct pDAB107636 contains the TraP19 chimeric chloroplast transit peptide (FIG. 7). Construct pDAB109847 contains the TraP26 chimeric chloroplast transit peptide (FIG. 8). Construct pDAB109848 contains the TraP27 chimeric chloroplast transit peptide (FIG. 9). Construct pDAB109849 contains the TraP28 chimeric chloroplast transit peptide (FIG. 10). […] The constructs were confirmed via restriction enzyme digestion and sequencing. Finally, the constructs were transformed into Agrobacterium tumefaciens and stored as glycerol stocks.
From an Agrobacterium glycerol stock, a loop full of frozen culture was inoculated into 2 ml of Yeast-extract Peptone Dextrose (100 μg/ml spectinomycin) in a 14 ml sterile tube. The inoculated media was incubated at 28° C. overnight with shaking at 200 rpm. The following day about 100 μl of the culture was used to inoculate 25 ml of YPD (100 μg/ml spectinomycin) in a 125 ml sterile tri-baffled flask, and incubated overnight at 28° C. overnight with shaking at 200 rpm. The following day the cultures were diluted to an OD600 of 0.5 in sterile ddH2O (pH 8.0). The diluted Agrobacterium strain was mixed with a second Agrobacterium strain containing the P19 helper protein at a ratio of 1:1. The culture were used for tobacco leaf infiltration via the Voinnet method. Voinnet O, Rivas S, Mestre P, and Baulcombe D, (2003) An enhanced transient expression system in plants based on suppression of gene silencing by the p19 protein of tomato bushy stunt virus. The Plant Journal, 33: 949-956. Infiltrated tobacco plants were placed in a Conviron™ set at 16 hr of light at 24° C. for at least three days until being assayed.
Agrobacterium-infiltrated tobacco leaves were severed from the plant, and placed into a petri-dish with water to prevent dehydration. The infiltrated tobacco leaves were observed under blue light excitation with long-pass filter glasses held in place using a Dark Reader Hand Lamp™ (Clare Chemical Research Co.; Dolores, Colo.) to identify undamaged areas of the leaf that were successfully expressing the YFP or GFP reporter proteins. […]

The test system of experiment [2] is infiltrated tobacco cells. As to the kind of experiment: Western blot of infiltrated tobacco plants. Type of experiment: cell-based, Nicotiana tabacum. The note with it: infiltrated tobacco leaf tissue. On the procedure:
Samples of the infiltrated tobacco plants were assayed via Western blotting. Leaf punches were collected and subjected to bead-milling. About 100-200 mg of leaf material was mixed with 2 BBs (Daisy; Rogers, Ark.) and […] of PBST for 3 minutes in a Kleco™ bead mill. The samples were then spun down in a centrifuge at 14,000× g at 4° C. The supernatant was removed and either analyzed directly via Western blot or immunoprecipitated. The immunoprecipitations were performed using the Pierce Direct IP Kit™ (Thermo Scientific; Rockford, Ill.) following the manufacturer's protocol. Approximately, 50 μg of anti-YFP or anti-GFP was bound to the resin. The samples were incubated with the resin overnight at 4° C. Next, the samples were washed and eluted the following morning and prepped for analysis by combining equal volumes of 2×8M Urea sample buffer and then boiling the samples for 5 minutes. The boiled samples were run on a 4-12% SDS-Bis Tris gel in MOPS buffer for 40 minutes. The gel was then blotted using the Invitrogen iBlot™ (Life Technologies; Carlsbad, Calif.) following the manufacturer's protocol. The blotted membrane was blocked for 10 minutes using 5% non-fat dry milk in PBS-Tween® solution. The membrane was probed with the primary antibody (monoclonal anti-GFP or anti-YFP in rabbit) used at a 1:1000 dilution in the 5% non-fat dry milk in PBS-Tween® solution for 1 hour. Next, the membrane was rinsed three times for five minutes with PBS-Tween® to remove all unbound primary antibody. The membrane was probed with a secondary monoclonal anti-rabbit in goat antibody (Life Technologies) used at a 1:1000 dilution, for 60 minutes. The membrane was washed as previously described and developed by adding Themo BCIP/NBT™ substrate. The colormetric substrate was allowed to develop for 5-10 minutes and then the blots were rinsed with water before being dried.

Experiment [3] relates to dgt-28 transformed T1 Arabidopsis. The experiment can be described thus: Glyphosate tolerance of dgt-28 transformed T1 Arabidopsis. Type of experiment: in vivo, Arabidopsis thaliana. The note with it: dgt-28 linked with the chloroplast transit peptide, T1 Arabidopsis. How it is done:
The Arabidopsis T1 transformants (from transformation with pDAB114286 or pDAB114287) were first selected from the background of untransformed seed using a glufosinate selection scheme. Three flats or 50,000 seed were analyzed for each T1 construct. The selected T1 plants were molecularly characterized (as described above) and events with a range of copy number were sprayed with various rates of commercial glyphosate.
Transgenic T1 Arabidopsis plants containing the dgt-28 transgene were sprayed with differing rates of glyphosate. Elevated rates were applied in this study to determine the relative levels of resistance (420, 840, 1,680 or 3,360 g ae/ha). The typical 1× field usage rate of glyphosate is 1120 g ae/ha. The response of these plants is presented in terms of % visual injury 2 weeks after treatment (WAT). The T1 Arabidopsis plants that were used in this study were of variable copy number for the dgt-28 transgene. The low copy dgt-28 T1 Arabidopsis plants were self-pollinated and used to produce T2 plants.
An arithmetic mean and standard deviation is presented for each construct used for Arabidopsis transformation. The range in individual response is also indicated in the last column for each rate and transformation. Wildtype, non-transformed Arabidopsis thaliana c.v. Columbia served as a glyphosate sensitive control.

Experiment [4] relates to chloroplasts of the maize protoplasts. The experiment can be described thus: Maize protoplast transient assay, microscopy of TraP-GFP. The note with it: TraP-GFP fusion, transfected maize protoplasts, microscopy after 12 hours. In kind it is cell-based, Zea mays c.v. B104. On the procedure:
Seed of Zea mays c.v. B104 were surface sterilized by shaking vigorously in 50% Clorox™ (3% sodium hypochlorite), containing 2-3 drops of Tween® 20, for about 20 minutes. The seeds were rinsed thoroughly with sterile distilled water. The sterile seed were plated onto ½ MS medium in Phytatrays or similar type boxes, and allowed to grow in the dark (28° C.) for 12 to 20 days. A maize protoplast transient assay was used to obtain and transfect maize protoplasts from leaves of Zea mays c.v. B104. This maize protoplast assay is a modification of the system described by Yoo, S.-D., Cho, Y.-H., and Sheen, J., (2007), Arabidopsis Mesophyll Protoplasts: A Versitile Cell System for Transient Gene Expression Analysis, Nature Protocols, 2: 1565-1572. The solutions were prepared as described by Yoo et. al., (2007), with the exception that the mannitol concentration used for the following experiments was change to 0.6 M.
Transfection of 100 to 500 μl of protoplasts (1-5×10^5 cells) was completed by adding the protoplasts to a 2 ml microfuge tube containing about 40 μg of plasmid DNA, at room temperature. The volume of DNA was preferably kept to about 10% of the protoplast volume. The protoplasts and DNA were occasionally mixed during a 5 minute incubation period. An equal volume of PEG solution was slowly added to the protoplasts and DNA, 2 drops at a time with mixing in between the addition of the drops of PEG solution. The tubes were allowed to incubate for about 10 minutes with occasional gentle mixing. Next, 1 ml of W5+ solution was added and mixed by inverting the tube several times. The tube(s) were centrifuged for 5 minutes at 75× g at a temperature of 4° C. Finally, the supernatant was removed and the pellet was resuspended in 1 ml of WI solution and the protoplasts were placed into a small petri plate (35×10 mm) or into 6-well multiwell plates and incubated overnight in the dark at room temperature. Fluorescence of GFP was viewed by microscopy after 12 hours of incubation. The microscopy conditions similar to those previously described were used for the imaging.

B1: TraP27: synthetic chloroplast transit peptide, SEQ ID NO:7; tested fused to GFP (pDAB109848) (protein)
chain: MATFTRVCHTARKSFVSLSNSQANSPVSVRFLSLPMPAARPAVKSGVRLWGCRLSFKVSAS
modifications: TraP27
B1: the figures for the “translocation of YFP or GFP fluorescent protein into chloroplasts” value in experiment [1] and in experiment [1] (listed as TraP27-GFP) were “accumulated within the chloroplasts; also recorded: successfully targeted GFP to tobacco chloroplasts” and “translocated into the chloroplasts”, respectively. Also, in experiment [2], the “TraP processed and cleaved from the YFP or GFP protein” value (from here on “TraP processed and cleaved”) was “processed and cleaved from the YFP or GFP protein”. In addition, the protection to glyphosate result in experiment [3] is on record as “provide protection to glyphosate”.

B2: TraP18: chimeric chloroplast transit peptide, SEQ ID NO:4; N-terminus Oryza sativa, C-terminus Amaranthus; tested fused to GFP (pDAB107635) (protein)
chain: MAATMASNAAAAAAVSLDQAVAASAAFSSKTLNFGSNLRISPKFMSLTNKRVGGQSSIVPKIQASVA
modifications: TraP18
B2: the “translocation of YFP or GFP fluorescent protein into chloroplasts” value is “accumulated within the chloroplasts; also recorded: successfully targeted GFP to maize and tobacco chloroplasts” in experiment [1]; “translocated into the chloroplasts” in experiment [1] (listed as TraP18-GFP). In addition, in experiment [2], the “TraP processed and cleaved” value is “processed and cleaved from the YFP or GFP protein”. In addition, the “translocation of GFP fluorescent protein into chloroplasts” value was “accumulated within the chloroplasts; also recorded: successfully targeted GFP to maize and tobacco chloroplasts” in experiment [4]; “translocated into the chloroplasts” in experiment [4] (listed as TraP18-GFP).

B3: TraP19: chimeric chloroplast transit peptide, SEQ ID NO:5; N-terminus Amaranthus, C-terminus Dunaliella salina; tested fused to GFP (pDAB107636) (protein)
chain: MAQATTINNGVHTGQLHHTLPKTQLPKSSKVNDVVPHVYSAPLSVARRSCSKSSIRSTRRLQTTVCS
modifications: TraP19
For B3, the “translocation of YFP or GFP fluorescent protein into chloroplasts” value in experiment [1] is “accumulated within the chloroplasts; also recorded: successfully targeted GFP to maize and tobacco chloroplasts”; in experiment [1] (listed as TraP19-GFP), “translocated into the chloroplasts”. Also, the “TraP processed and cleaved” value in experiment [2] was “processed and cleaved from the YFP or GFP protein”. Further, the “translocation of GFP fluorescent protein into chloroplasts” value in experiment [4] was “successfully targeted GFP to maize and tobacco chloroplasts”; in experiment [4] (listed as TraP19-GFP), “translocated into the chloroplasts”; in experiment [4] (listed as Trap19), “accumulated within the chloroplasts”.
